Data on two molecules can be found in article PMC5983932 (Oncology Reports, 2018).

B1: recombinant human His-tag-PRMT2 protein (protein arginine N-methyltransferase 2) (enzyme, UniProt P55345-1 1-433, looked up)
chain: MATSGDCPRSESQGEEPAECSEAGLLQEGVQPEEFVAIADYAATDETQLSFLRGEKILILRQTTADWWWGERAGCCGYIPANHVGKHVDEYDPEDTWQDEEYFGSYGTLKLHLEMLADQPRTTKYHSVILQNKESLTDKVILDVGCGTGIISLFCAHYARPRAVYAVEASEMAQHTGQLVLQNGFADIITVYQQKVEDVVLPEKVDVLVSEWMGTCLLFEFMIESILYARDAWLKEDGVIWPTMAALHLVPCSADKDYRSKVLFWDNAYEFNLSALKSLAVKEFFSKPKYNHILKPEDCLSEPCTILQLDMRTVQISDLETLRGELRFDIRKAGTLHGFTAWFSVHFQSLQEGQPPQVLSTGPFHPTTHWKQTLFMMDDPVPVHTGDVVTGSVVLQRNPVWRRHMSVALSWAVTSRQDPTSQKVGEKVFPIWR

The target in assay [1] is T1, GST-ER-α66 fusion protein (UniProt P03372 1-595).
T1 sequence (looked up): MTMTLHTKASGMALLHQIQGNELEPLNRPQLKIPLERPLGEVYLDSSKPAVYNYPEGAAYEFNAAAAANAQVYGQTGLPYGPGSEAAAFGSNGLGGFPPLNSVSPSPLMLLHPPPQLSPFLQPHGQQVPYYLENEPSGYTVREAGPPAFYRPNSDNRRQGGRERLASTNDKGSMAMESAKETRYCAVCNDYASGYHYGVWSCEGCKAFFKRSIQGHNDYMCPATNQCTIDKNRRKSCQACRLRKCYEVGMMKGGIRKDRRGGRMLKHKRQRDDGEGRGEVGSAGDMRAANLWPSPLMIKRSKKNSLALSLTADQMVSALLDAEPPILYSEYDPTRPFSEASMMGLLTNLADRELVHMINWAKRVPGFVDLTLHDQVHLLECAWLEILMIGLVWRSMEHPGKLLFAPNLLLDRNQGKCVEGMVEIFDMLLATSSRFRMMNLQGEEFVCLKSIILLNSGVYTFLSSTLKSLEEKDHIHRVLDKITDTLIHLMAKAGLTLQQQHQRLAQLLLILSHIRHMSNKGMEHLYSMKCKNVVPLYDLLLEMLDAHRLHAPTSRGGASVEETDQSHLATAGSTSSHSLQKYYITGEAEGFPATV
The experiment in a line: pull-down.

The target of assay [2] is B1. The experiment in a line: pull-down.

Regarding B1, the binding result in assay [1] is listed as “binds”.

B2: GST-ER-α36 fusion protein (receptor, UniProt P03372-4 1-310, looked up)
chain: MAMESAKETRYCAVCNDYASGYHYGVWSCEGCKAFFKRSIQGHNDYMCPATNQCTIDKNRRKSCQACRLRKCYEVGMMKGGIRKDRRGGRMLKHKRQRDDGEGRGEVGSAGDMRAANLWPSPLMIKRSKKNSLALSLTADQMVSALLDAEPPILYSEYDPTRPFSEASMMGLLTNLADRELVHMINWAKRVPGFVDLTLHDQVHLLECAWLEILMIGLVWRSMEHPGKLLFAPNLLLDRNQGKCVEGMVEIFDMLLATSSRFRMMNLQGEEFVCLKSIILLNSGISHVEAKKRILNLHPKIFGNKWFPRV
For B2, the binding result in assay [2] was “binds”.
